Experiments:
[1] = target: Lag3 on cynomolgus PBMC/T cells (cynomolgus); assay: flow cytometry, non-activated cynomolgus PBMC, 10 µg/ml
[2] = target: Lag3 on cynomolgus PBMC/T cells (cynomolgus); assay: flow cytometry, CD3/CD28-activated cynomolgus PBMC, 10 µg/ml
[3] = target: Lag3 on Lag3+ NFAT Jurkat effector cells (Promega #CS194801); assay: cell-based or functional assay
[4] = target: cynomolgus LAG3 on transiently transfected HEK293F cells (cynomolgus); assay: flow cytometry on HEK293F cells transfected with cyno LAG3, 10 µg/ml

Sequence of control antibody MDX25F7 (VH): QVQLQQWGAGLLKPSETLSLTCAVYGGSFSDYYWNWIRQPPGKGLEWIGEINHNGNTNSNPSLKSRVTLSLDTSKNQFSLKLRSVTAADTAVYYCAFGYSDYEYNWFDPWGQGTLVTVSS
Sequence of control antibody MDX25F7 (VL): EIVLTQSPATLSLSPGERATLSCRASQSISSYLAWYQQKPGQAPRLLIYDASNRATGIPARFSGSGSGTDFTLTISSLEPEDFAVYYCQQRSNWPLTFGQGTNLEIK

Percentage of Lag3 positive cells [1] [%] | Percentage of Lag3 positive cells [2] [%] | EC50 of restoration of the NFAT luciferase signal (NFAT Lag3 reporter assay: Lag3+ Jurkat, Raji cells, SED) [3] [µg/mL] | IC50 for near-complete reduction of luciferase activity (modified NFAT Lag3 reporter assay, Lag3+ Jurkat cells alone) [3] [µg/mL] | LAG3 positive cells (%) [4] [%] | Signal intensity (Geo Mean) [4] [Geo Mean] | Substance
10.1 | 18.6 |  |  |  |  | BMS-986016 (antibody)
2.5 | 9.19 |  |  |  |  | DP47 (human isotype control) (antibody)
11.3 | 22.1 | 1.29 | 0.033 | 48.2 | 1560 | control antibody MDX25F7

— US20200354457A1
